Results reported in article PMC6804253, “Predicting and Experimentally Validating Hot-Spot Residues at Protein–Protein Interfaces” (ACS Chemical Biology, 2019).

Key:
[1] = system: PPIs of the SKEMPI data set (by PDBID); experiment: SKEMPI experimental ΔΔG, single mutations to alanine; assay type: binding; conditions: for sk_class: class of the SKEMPI experimental ΔΔG
[2] = system: PPIs of the SKEMPI data set (by PDBID); conditions: single mutation to alanine, ref SKEMPI, cited from earlier work; for sk_ddG_kJ (SKEMPI experimental ΔΔG): complex given by PDBID, residue group SQNT

Molecule	sk_class [1]	sk_ddG_kJ (SKEMPI experimental ΔΔG) [2] [kJ]	sk_class (class of the SKEMPI experimental ΔΔG) ([1]; class by ΔΔG threshold 4.184 kJ/mol, ref SKEMPI)	sk_ddG_kJ (SKEMPI experimental ΔΔG, mutation to alanine) ([2]; PPI given by PDBID, sheet sortedByGroup, r_group DERKH) [kJ]
1DAN NT18A (protein, UniProt P13726 33-251, looked up, variant N18A, extracellular domain) extracellular domain: SGTTNTVAAYNLTWKSTAFKTILEWEPKPVNQVYTVQISTKSGDWKSKCFYTTDTECDLTDEIVKDVKQTYLARVFSYPAGNVESTGSAGEPLYENSPEFTPYLETNLGQPTIQSFEQVGTKVNVTVEDERTLVRRNNTFLSLRDVFGKDLIYTLYYWKSSSSGKKTAKTNTNEFLIDVDKGENYCFSVQAVIPSRTVNRKSTDSPVECMGQEKGEFRE	Neutral (neutral (little effect) 4.184 kJ/mol < ΔΔG > −4.184 kJ/mol)	0.75	–	–
1DAN TU132A (protein, UniProt P13726 33-251, looked up, variant T132A, extracellular domain) extracellular domain: SGTTNTVAAYNLTWKSTNFKTILEWEPKPVNQVYTVQISTKSGDWKSKCFYTTDTECDLTDEIVKDVKQTYLARVFSYPAGNVESTGSAGEPLYENSPEFTPYLETNLGQPTIQSFEQVGTKVNVTVEDERALVRRNNTFLSLRDVFGKDLIYTLYYWKSSSSGKKTAKTNTNEFLIDVDKGENYCFSVQAVIPSRTVNRKSTDSPVECMGQEKGEFRE	Neutral (neutral (little effect) 4.184 kJ/mol < ΔΔG > −4.184 kJ/mol)	0.00	–	–
1DAN QU110A (protein, UniProt P13726 33-251, looked up, variant Q110A, extracellular domain) extracellular domain: SGTTNTVAAYNLTWKSTNFKTILEWEPKPVNQVYTVQISTKSGDWKSKCFYTTDTECDLTDEIVKDVKQTYLARVFSYPAGNVESTGSAGEPLYENSPEFTPYLETNLGAPTIQSFEQVGTKVNVTVEDERTLVRRNNTFLSLRDVFGKDLIYTLYYWKSSSSGKKTAKTNTNEFLIDVDKGENYCFSVQAVIPSRTVNRKSTDSPVECMGQEKGEFRE	Positive (positive (a hot residue) ΔΔG ≥ 4.184 kJ/mol)	5.44	–	–
1DAN NU107A (protein, UniProt P13726 33-251, looked up, variant N107A, extracellular domain) extracellular domain: SGTTNTVAAYNLTWKSTNFKTILEWEPKPVNQVYTVQISTKSGDWKSKCFYTTDTECDLTDEIVKDVKQTYLARVFSYPAGNVESTGSAGEPLYENSPEFTPYLETALGQPTIQSFEQVGTKVNVTVEDERTLVRRNNTFLSLRDVFGKDLIYTLYYWKSSSSGKKTAKTNTNEFLIDVDKGENYCFSVQAVIPSRTVNRKSTDSPVECMGQEKGEFRE	Neutral (neutral (little effect) 4.184 kJ/mol < ΔΔG > −4.184 kJ/mol)	0.00	–	–
1DAN TT21A (protein, UniProt P13726 33-251, looked up, variant T21A, extracellular domain) extracellular domain: SGTTNTVAAYNLTWKSTNFKAILEWEPKPVNQVYTVQISTKSGDWKSKCFYTTDTECDLTDEIVKDVKQTYLARVFSYPAGNVESTGSAGEPLYENSPEFTPYLETNLGQPTIQSFEQVGTKVNVTVEDERTLVRRNNTFLSLRDVFGKDLIYTLYYWKSSSSGKKTAKTNTNEFLIDVDKGENYCFSVQAVIPSRTVNRKSTDSPVECMGQEKGEFRE	Neutral (neutral (little effect) 4.184 kJ/mol < ΔΔG > −4.184 kJ/mol)	-0.67	–	–
1DAN TU139A (protein, UniProt P13726 33-251, looked up, variant T139A, extracellular domain) extracellular domain: SGTTNTVAAYNLTWKSTNFKTILEWEPKPVNQVYTVQISTKSGDWKSKCFYTTDTECDLTDEIVKDVKQTYLARVFSYPAGNVESTGSAGEPLYENSPEFTPYLETNLGQPTIQSFEQVGTKVNVTVEDERTLVRRNNAFLSLRDVFGKDLIYTLYYWKSSSSGKKTAKTNTNEFLIDVDKGENYCFSVQAVIPSRTVNRKSTDSPVECMGQEKGEFRE	Neutral (neutral (little effect) 4.184 kJ/mol < ΔΔG > −4.184 kJ/mol)	-0.04	–	–
1DAN TT52A (protein, UniProt P13726 33-251, looked up, variant T52A, extracellular domain) extracellular domain: SGTTNTVAAYNLTWKSTNFKTILEWEPKPVNQVYTVQISTKSGDWKSKCFYATDTECDLTDEIVKDVKQTYLARVFSYPAGNVESTGSAGEPLYENSPEFTPYLETNLGQPTIQSFEQVGTKVNVTVEDERTLVRRNNTFLSLRDVFGKDLIYTLYYWKSSSSGKKTAKTNTNEFLIDVDKGENYCFSVQAVIPSRTVNRKSTDSPVECMGQEKGEFRE	Neutral (neutral (little effect) 4.184 kJ/mol < ΔΔG > −4.184 kJ/mol)	1.67	–	–
1DAN ST42A (protein, UniProt P13726 33-251, looked up, variant S42A, extracellular domain) extracellular domain: SGTTNTVAAYNLTWKSTNFKTILEWEPKPVNQVYTVQISTKAGDWKSKCFYTTDTECDLTDEIVKDVKQTYLARVFSYPAGNVESTGSAGEPLYENSPEFTPYLETNLGQPTIQSFEQVGTKVNVTVEDERTLVRRNNTFLSLRDVFGKDLIYTLYYWKSSSSGKKTAKTNTNEFLIDVDKGENYCFSVQAVIPSRTVNRKSTDSPVECMGQEKGEFRE	Neutral (neutral (little effect) 4.184 kJ/mol < ΔΔG > −4.184 kJ/mol)	-0.29	–	–
1A4Y DA435A (protein, UniProt P13489 2-461, looked up, variant D435A) Ribonuclease inhibitor: SLDIQSLDIQCEELSDARWAELLPLLQQCQVVRLDDCGLTEARCKDISSALRVNPALAELNLRSNELGDVGVHCVLQGLQTPSCKIQKLSLQNCCLTGAGCGVLSSTLRTLPTLQELHLSDNLLGDAGLQLLCEGLLDPQCRLEKLQLEYCSLSAASCEPLASVLRAKPDFKELTVSNNDINEAGVRVLCQGLKDSPCQLEALKLESCGVTSDNCRDLCGIVASKASLRELALGSNKLGDVGMAELCPGLLHPSSRLRTLWIWECGITAKGCGDLCRVLRAKESLKELSLAGNELGDEGARLLCETLLEPGCQLESLWVKSCSFTAACCSHFSSVLAQNRFLLELQISNNRLEDAGVRELCQGLGQPGSVLRVLWLADCDVSDSSCSSLAATLLANHSLRELDLSNNCLGDAGILQLVESVRQPGCLLEQLVLYAIYWSEEMEDRLQALEKDKPSLRVIS	–	–	Positive (positive (a hot residue) ΔΔG ≥ 4.184 kJ/mol)	14.56
1DAN ST47A (protein, UniProt P13726 33-295, looked up, variant S47A) Tissue factor: SGTTNTVAAYNLTWKSTNFKTILEWEPKPVNQVYTVQISTKSGDWKAKCFYTTDTECDLTDEIVKDVKQTYLARVFSYPAGNVESTGSAGEPLYENSPEFTPYLETNLGQPTIQSFEQVGTKVNVTVEDERTLVRRNNTFLSLRDVFGKDLIYTLYYWKSSSSGKKTAKTNTNEFLIDVDKGENYCFSVQAVIPSRTVNRKSTDSPVECMGQEKGEFREIFYIIGAVVFVVIILVIILAISLHKCRKAGVGQSWKENSPLNVS	Neutral (neutral (little effect) 4.184 kJ/mol < ΔΔG > −4.184 kJ/mol)	-0.54	–	–
1DAN TT60A (protein, UniProt P13726 33-295, looked up, variant T60A) Tissue factor: SGTTNTVAAYNLTWKSTNFKTILEWEPKPVNQVYTVQISTKSGDWKSKCFYTTDTECDLADEIVKDVKQTYLARVFSYPAGNVESTGSAGEPLYENSPEFTPYLETNLGQPTIQSFEQVGTKVNVTVEDERTLVRRNNTFLSLRDVFGKDLIYTLYYWKSSSSGKKTAKTNTNEFLIDVDKGENYCFSVQAVIPSRTVNRKSTDSPVECMGQEKGEFREIFYIIGAVVFVVIILVIILAISLHKCRKAGVGQSWKENSPLNVS	Positive (positive (a hot residue) ΔΔG ≥ 4.184 kJ/mol)	9.67	–	–
